Biological target: T1, SFVmac PR-RT WT (Simian foamy virus from macaques …, UniProt P23074 1-751)
T1 sequence: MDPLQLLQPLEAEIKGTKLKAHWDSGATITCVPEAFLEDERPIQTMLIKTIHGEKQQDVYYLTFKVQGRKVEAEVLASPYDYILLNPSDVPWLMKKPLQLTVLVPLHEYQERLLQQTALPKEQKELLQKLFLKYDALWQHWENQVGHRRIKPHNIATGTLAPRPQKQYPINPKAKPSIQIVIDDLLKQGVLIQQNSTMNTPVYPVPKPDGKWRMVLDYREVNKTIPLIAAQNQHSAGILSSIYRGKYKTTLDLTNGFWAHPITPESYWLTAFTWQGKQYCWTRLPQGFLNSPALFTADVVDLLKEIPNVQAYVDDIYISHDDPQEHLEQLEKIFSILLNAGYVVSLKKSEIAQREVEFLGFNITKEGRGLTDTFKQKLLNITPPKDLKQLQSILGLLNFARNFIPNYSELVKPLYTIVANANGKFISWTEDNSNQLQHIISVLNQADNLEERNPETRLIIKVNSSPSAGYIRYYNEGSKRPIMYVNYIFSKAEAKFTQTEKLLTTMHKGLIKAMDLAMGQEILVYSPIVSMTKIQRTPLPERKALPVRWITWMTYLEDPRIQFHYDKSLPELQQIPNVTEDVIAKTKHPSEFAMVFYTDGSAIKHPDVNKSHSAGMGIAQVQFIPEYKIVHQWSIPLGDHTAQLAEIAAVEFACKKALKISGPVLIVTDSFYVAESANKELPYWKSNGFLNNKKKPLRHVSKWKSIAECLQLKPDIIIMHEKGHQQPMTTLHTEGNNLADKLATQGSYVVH
Experiment: fluorescence anisotropy; Fluorescence equilibrium titration, 5 nM DNA, 25 C; buffer, salt and pH not given in the material (refs 14, 43)
Settings: protein: recombinant; label: 5' DY647 on template (S6); 24 bp; template 5' overhang 5 nt and 3' overhang 11 nt

B1: 24/40-mer DNA/DNA primer/template (dsDNA)
DNA 1: CTAATTCCGCTTTCCCCTCTCCTGGTGATCCTTTCCATCC
DNA 2: ATCACCAGGAGAGGGGAAAGCGGA
- Kd: 9.6 ± 0.7 nM

Reference: paper PMC4359774, “AZT resistance alters enzymatic properties and creates an ATP-binding site in SFVmac reverse transcriptase”
